According to patent publication US20100016234A1, “SIGNAL PEPTIDES, NUCLEIC ACID MOLECULES AND METHODS FOR TREATMENT OF CARIES” (The Governing Council of the University of Toronto, published 2010):

T1: S. mutans ComD protein (histidine kinase) (Streptococcus mutans)
T1 chain: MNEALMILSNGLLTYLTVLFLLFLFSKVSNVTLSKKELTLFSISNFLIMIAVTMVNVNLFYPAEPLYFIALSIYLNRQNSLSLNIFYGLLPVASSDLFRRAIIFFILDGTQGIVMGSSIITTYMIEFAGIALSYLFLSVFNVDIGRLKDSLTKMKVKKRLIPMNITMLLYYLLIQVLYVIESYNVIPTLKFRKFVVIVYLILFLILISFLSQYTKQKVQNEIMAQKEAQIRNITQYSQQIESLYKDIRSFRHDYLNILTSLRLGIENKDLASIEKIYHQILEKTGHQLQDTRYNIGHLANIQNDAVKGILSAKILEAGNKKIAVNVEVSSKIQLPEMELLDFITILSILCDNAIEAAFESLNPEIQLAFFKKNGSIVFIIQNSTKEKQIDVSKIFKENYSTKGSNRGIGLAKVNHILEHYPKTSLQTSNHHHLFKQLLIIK


Legend:
[1] = biological target: T1, S. mutans ComD protein (histidine …); experiment: cell-based or functional assay
[2] = biological target: T1, S. mutans ComD protein (histidine …); experiment: cell-based or functional assay

Binder	Transformation efficiency (vs no CSP), S. mutans wild-type UA159, 5 µg/ml peptide [1]	Biofilm formation (SDM-glucose), S. mutans UA159, 5 µg/ml peptide [2]
SGSLSTFFRLFNRSFTQALGK [S. mutans competence signal peptide (CSP), mature wild-type CSP sequence]	1550 fold increase (vs no CSP)	
SGSLSTFFRLFNRSFTQLGK [Peptide analog H1]	18 fold decrease (vs no CSP)	
SGSLSTFFRLFNRSFTALGK [Peptide analog A2]	125 fold increase (vs no CSP)	
SGSLSTFFVLFNRSFTQALGK [Peptide analog B2]	4 fold increase (vs no CSP)	
SGSLSTFFALFNRSFTQALGK [Peptide analog C2]	32 fold increase (vs no CSP)	
SGSLSTFFRLFNVSFTQALGK [Peptide analog D2]	99 fold increase (vs no CSP)	
SGSLSTFFRLFNASFTQALGK [Peptide analog E2]	252 fold increase (vs no CSP)	38.9 % biomass (reduction)
SGSLSTFFRLFNRSFTQALGV [Peptide analog F2]	543 fold increase (vs no CSP)	38.7 % biomass (reduction)
SGSLSTFFRLFNRSFTQALGA [Peptide analog G2]	56 fold increase (vs no CSP)	35.6 % biomass (reduction)
SGTLSTFFRLFNRSFTQA [Peptide analog B3 (JH1005 CSP sequence)]	195 fold increase (vs no CSP)	34.4 % biomass (reduction)
SGSLSTFFRLFNRSFTQALK [Peptide analog F1]	541 fold increase (vs no CSP)	36.7 % biomass (reduction)
SGSLSTFFRLFNRSFTQAGK [Peptide analog G1]	848 fold increase (vs no CSP)	24.4 % biomass (reduction)
SGSSTFFRLFNRSFTQALGK [Peptide analog D1]	275 fold increase (vs no CSP)	
SGSLTFFRLFNRSFTQALGK [Peptide analog E1]	791 fold increase (vs no CSP)	
